Target: T1, telomerase (hTERT) peptide on HLA-A*02:01 (human)
T1 peptide: RLVDDFLLV
Test: multimer staining

B1: TCR specific for the HLA-A2/hTERT865-873 complex (α5 and β3 chains, SEQ. ID. no. 1 and 2) (TCR, V domains shown)
Valpha: GEQVEQRPPHLSVREGDSAVIICTYTDPNSYYFFWYKQEPGAGLQLLMKVFSSTEINEGQGFTVLLNKKDKQLSLNLTAAHPGDSAVYFCAVRHDSGYNKLTFGKGTVLLVSP
Vbeta: NSKVIQTPRYLVKGQGQKAKMRCIPEKGHPVVFWYQQNKNNEFKFLINFQNQEVLQQIDMTEKRFSAECPSNSPCSLEIQSSEAGDSALYLCASSLSKGGFYEQYFGPGTRLTVL
binding result: recognises
